These results are taken from article PMC6572841, “Structural basis for the inhibition of translation through eIF2α phosphorylation” (Nature Communications, 2019).

Sequences and labels used below:
T1: eIF2Bβ (Saccharomyces cerevisiae, UniProt P32502 1-381)
T1 construct: eIF2Bβ, S. cerevisiae; Subunit of m2 as it stood in the eIF2B-eIF2(αP) complex; also called eIF2B β subunit; source: over-expressed in S. cerevisiae strain GP4109, purified as part of Flag-tagged eIF2B
T1 sequence: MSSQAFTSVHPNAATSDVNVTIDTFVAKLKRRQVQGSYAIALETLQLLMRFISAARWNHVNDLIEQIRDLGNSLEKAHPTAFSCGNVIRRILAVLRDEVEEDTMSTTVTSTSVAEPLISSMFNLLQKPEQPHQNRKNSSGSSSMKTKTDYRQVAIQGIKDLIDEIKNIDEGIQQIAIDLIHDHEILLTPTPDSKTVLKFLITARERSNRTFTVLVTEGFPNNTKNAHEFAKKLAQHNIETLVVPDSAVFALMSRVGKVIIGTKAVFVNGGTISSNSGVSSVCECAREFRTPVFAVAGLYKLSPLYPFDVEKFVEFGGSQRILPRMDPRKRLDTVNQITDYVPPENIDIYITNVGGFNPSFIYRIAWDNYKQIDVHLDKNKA

T2: eIF2Bε (Saccharomyces cerevisiae, UniProt P32501 1-712)
T2 construct: eIF2Bε, S. cerevisiae; Subunit of m2 as it stood in the eIF2B-eIF2(αP) complex; the ε-cat HEAT domain was not included in any model; also called eIF2B ε subunit; source: over-expressed in S. cerevisiae strain GP4109, purified as part of Flag-tagged eIF2B
T2 sequence: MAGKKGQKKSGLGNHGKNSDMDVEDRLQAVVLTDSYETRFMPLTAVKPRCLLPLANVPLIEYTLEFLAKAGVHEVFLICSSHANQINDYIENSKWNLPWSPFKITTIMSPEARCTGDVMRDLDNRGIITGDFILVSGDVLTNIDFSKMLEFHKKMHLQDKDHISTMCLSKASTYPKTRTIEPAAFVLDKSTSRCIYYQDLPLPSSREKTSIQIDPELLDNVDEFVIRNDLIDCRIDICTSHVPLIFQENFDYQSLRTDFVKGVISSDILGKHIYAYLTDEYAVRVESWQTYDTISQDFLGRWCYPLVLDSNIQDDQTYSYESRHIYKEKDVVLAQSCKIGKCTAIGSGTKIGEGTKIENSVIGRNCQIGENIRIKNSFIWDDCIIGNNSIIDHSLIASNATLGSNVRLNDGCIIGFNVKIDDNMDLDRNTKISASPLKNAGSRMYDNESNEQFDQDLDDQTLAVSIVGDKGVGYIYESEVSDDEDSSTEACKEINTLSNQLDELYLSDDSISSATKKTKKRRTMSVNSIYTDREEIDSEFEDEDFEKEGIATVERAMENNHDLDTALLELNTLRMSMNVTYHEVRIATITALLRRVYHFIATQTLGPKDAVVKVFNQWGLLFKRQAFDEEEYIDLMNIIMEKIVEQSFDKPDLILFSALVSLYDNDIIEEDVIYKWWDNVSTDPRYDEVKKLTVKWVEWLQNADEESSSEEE

T3: eIF2Bδ (Saccharomyces cerevisiae, UniProt P12754 1-651)
T3 construct: eIF2Bδ, S. cerevisiae; Subunit of m2 as it stood in the eIF2B-eIF2(αP) complex; also called eIF2B δ subunit; source: over-expressed in S. cerevisiae strain GP4109, purified as part of Flag-tagged eIF2B
T3 sequence: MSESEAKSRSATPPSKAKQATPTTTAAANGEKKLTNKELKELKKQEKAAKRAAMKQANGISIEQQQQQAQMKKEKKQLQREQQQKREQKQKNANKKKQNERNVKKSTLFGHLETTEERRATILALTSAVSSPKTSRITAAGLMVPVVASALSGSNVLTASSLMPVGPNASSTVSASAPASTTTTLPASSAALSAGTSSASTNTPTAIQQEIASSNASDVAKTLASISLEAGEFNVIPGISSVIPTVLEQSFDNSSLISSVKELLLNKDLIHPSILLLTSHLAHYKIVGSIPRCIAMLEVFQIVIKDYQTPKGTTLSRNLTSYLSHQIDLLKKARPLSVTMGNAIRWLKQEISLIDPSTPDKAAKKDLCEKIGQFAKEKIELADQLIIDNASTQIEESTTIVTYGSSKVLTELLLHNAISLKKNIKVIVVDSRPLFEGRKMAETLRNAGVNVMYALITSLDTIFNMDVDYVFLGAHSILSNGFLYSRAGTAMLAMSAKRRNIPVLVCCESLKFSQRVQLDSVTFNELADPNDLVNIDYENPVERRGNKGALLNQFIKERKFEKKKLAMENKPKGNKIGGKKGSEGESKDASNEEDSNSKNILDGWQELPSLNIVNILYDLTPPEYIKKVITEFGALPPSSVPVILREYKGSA

B1: eIF2Bα (natural protein, Saccharomyces cerevisiae)
chain: MSEFNITETYLRFLEEDTEMTMPIAAIEALVTLLRIKTPETAAEMINTIKSSTEELIKSIPNSVSLRAGCDIFMRFVLRNLHLYGDWENCKQHLIENGQLFVSRAKKSRNKIAEIGVDFIADDDIILVHGYSRAVFSLLNHAANKFIRFRCVVTESRPSKQGNQLYTLLEQKGIPVTLIVDSAVGAVIDKVDKVFVGAEGVAESGGIINLVGTYSVGVLAHNARKPFYVVTESHKFVRMFPLSSDDLPMAGPPLDFTRRTDDLEDALRGPTIDYTAQEYITALITDLGVLTPSAVSEELIKMWYD
notes: eIF2Bα, S. cerevisiae; Subunit of m2 as it stood in the eIF2B-eIF2(αP) complex; also called eIF2B α subunit; source: over-expressed in S. cerevisiae strain GP4109, purified as part of Flag-tagged eIF2B
B2: eIF2γ (natural protein, Saccharomyces cerevisiae, UniProt P32481 1-527, looked up)
chain: MSDLQDQEPSIIINGNLEPVGEPDIVEETEVVAQETQETQDADKPKKKVAFTGLEEDGETEEEKRKREFEEGGGLPEQPLNPDFSKLNPLSAEIINRQATINIGTIGHVAHGKSTVVRAISGVQTVRFKDELERNITIKLGYANAKIYKCQEPTCPEPDCYRSFKSDKEISPKCQRPGCPGRYKLVRHVSFVDCPGHDILMSTMLSGAAVMDAALLLIAGNESCPQPQTSEHLAAIEIMKLKHVIILQNKVDLMREESALEHQKSILKFIRGTIADGAPIVPISAQLKYNIDAVNEFIVKTIPVPPRDFMISPRLIVIRSFDVNKPGAEIEDLKGGVAGGSILNGVFKLGDEIEIRPGIVTKDDKGKIQCKPIFSNIVSLFAEQNDLKFAVPGGLIGVGTKVDPTLCRADRLVGQVVGAKGHLPNIYTDIEINYFLLRRLLGVKTDGQKQAKVRKLEPNEVLMVNIGSTATGARVVAVKADMARLQLTSPACTEINEKIALSRRIEKHWRLIGWATIKKGTTLEPIA
notes: eIF2γ, S. cerevisiae; Subunit of m1 as it stood in the eIF2B-eIF2(αP) complex; also called eIF2 γ subunit; source: purified from S. cerevisiae strain GP3511 as part of eIF2
B3: eIF2β (natural protein, Saccharomyces cerevisiae, UniProt P09064 1-285, looked up)
chain: MSSDLAAELGFDPALKKKKKTKKVIPDDFDAAVNGKENGSGDDLFAGLKKKKKKSKSVSADAEAEKEPTDDIAEALGELSLKKKKKKTKDSSVDAFEKELAKAGLDNVDAESKEGTPSANSSIQQEVGLPYSELLSRFFNILRTNNPELAGDRSGPKFRIPPPVCLRDGKKTIFSNIQDIAEKLHRSPEHLIQYLFAELGTSGSVDGQKRLVIKGKFQSKQMENVLRRYILEYVTCKTCKSINTELKREQSNRLFFMVCKSCGSTRSVSSIKTGFQATVGKRRRM
notes: eIF2β, S. cerevisiae; Subunit of m1 as it stood in the eIF2B-eIF2(αP) complex; also called eIF2 β subunit; source: purified from S. cerevisiae strain GP3511 as part of eIF2
B4: eIF2Bγ (natural protein, Saccharomyces cerevisiae)
chain: MSIQAFVFCGKGSNLAPFTQPDFPFQTQNKDSTAATSGDKLNELVNSALDSTVINEFMQHSTRLPKALLPIGNRPMIEYVLDWCDQADFKEISVVAPVDEIELIESGLTSFLSLRKQQFELIYKALSNSNHSHHLQDPKKINFIPSKANSTGESLQKELLPRINGDFVILPCDFVTDIPPQVLVDQFRNRDDNNLAMTIYYKNSLDSSIDKKQQQKQKQQQFFTVYSENEDSERQPILLDVYSQRDVTKTKYLQIRSHLLWNYPNLTVSTKLLNSFIYFCSFELCQLLKLGPQSMSRQASFKDPFTGNQQQQNPPTTDDDEDRNHDDDDDYKPSATSIQPTYFKKKNDLILDPINCNKSLSKVFRDLSRRSWQHSKPREPIGIFILPNETLFIRANNLNAYMDANRFVLKIKSQTMFTKNIQIQSAAIGADAIVDPKCQISAHSNVKMSVLGTQANIGSRCRVAGSLLFPGVHLGDEVILENCIIGPMAKIGSKCKLSNCYIEGHYVVEPKNNFKGETLANVYLDEDEEDELIYDDSVIAGESEIAEETDSDDRSDEDSDDSEYTDEYEYEDDGLFER
notes: eIF2Bγ, S. cerevisiae; Subunit of m2 as it stood in the eIF2B-eIF2(αP) complex; also called eIF2B γ subunit; source: over-expressed in S. cerevisiae strain GP4109, purified as part of Flag-tagged eIF2B
B5: eIF2α phosphorylated at Ser51 (natural protein, Saccharomyces cerevisiae, UniProt P20459 1-304, looked up)
chain: MSTSHCRFYENKYPEIDDIVMVNVQQIAEMGAYVKLLEYDNIEGMILLSELSRRRIRSIQKLIRVGKNDVAVVLRVDKEKGYIDLSKRRVSSEDIIKCEEKYQKSKTVHSILRYCAEKFQIPLEELYKTIAWPLSRKFGHAYEAFKLSIIDETVWEGIEPPSKDVLDELKNYISKRLTPQAVKIRADVEVSCFSYEGIDAIKDALKSAEDMSTEQMQVKVKLVAAPLYVLTTQALDKQKGIEQLESAIEKITEVITKYGGVCNITMPPKAVTATEDAELQALLESKELDNRSDSEDDEDESDDE
modifications: phosphoserine at 51 (52 sequence numbering); measured by mass spectrometry to be 89.4%
notes: eIF2α, S. cerevisiae; Subunit of m1 as it stood in the eIF2B-eIF2(αP) complex; also called eIF2(αP) α subunit; source: purified from S. cerevisiae strain GP3511 as part of eIF2; phosphorylated in vitro by human PKR (Invitrogen)

Common to all, as to assay: cryo-EM structure; eIF2(αP) with 2 mM GDP added to Flag-tagged eIF2B immobilised on Anti-Flag M2 gel, eluted with 3XFlag-peptide; 20 mM Hepes (pH 7.5), 100 mM KCl, 5 mM MgCl2, 5 mM β-ME; diluted to ~200 nM with 0.1% glutaraldehyde; six maps, 4.2 to 10.4 Å
Settings in all cases: both partners purified

For test [1], the target named is T1, eIF2Bβ.
Test [2] addresses B4.
Test [3] deals with T2, eIF2Bε.
Test [4] concerns the target B1.
The target of test [5] is T3, eIF2Bδ.

For B1, the binding result in test [1] was “binds”. Consider B2, for which, in test [2], the binding result is “binds”.

With B3, the binding result in test [2] and in test [3] was “binds” each time.

For the molecule B4, the binding result in test [3] was “binds”.

As for B5, the binding result in test [4], in test [1] and in test [5] was “binds” throughout.
